Assays:
[1] = test system: T1, Aux1LS20-His6 (p56) (Bacillus subtilis plasmid pLS20cat), ORF:1a040432; experiment: EMSA; settings: EMSA: 20 mM Tris-HCl pH 8, 1 mM EDTA, 5 mM MgCl2, 0.5 mM DTT, 100 mM KCl, 10% glycerol, 0.05 mg/ml BSA; 20 min 30°C then 10 min on ice; 2% agarose, 0.5x TBE …
T1 sequence: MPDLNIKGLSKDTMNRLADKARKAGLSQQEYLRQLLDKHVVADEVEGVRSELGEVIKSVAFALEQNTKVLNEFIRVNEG

[2] = target: T2, Aux2LS20-His6 (p57) (Bacillus subtilis plasmid pLS20cat) (UniProt E9RJ22); experiment: EMSA; settings: EMSA: 20 mM Tris-HCl pH 8, 1 mM EDTA, 5 mM MgCl2, 0.5 mM DTT, 100 mM KCl, 10% glycerol, 0.05 mg/ml BSA; 20 min 30°C then 10 min on ice; 2% agarose, 0.5x TBE …
T2 sequence: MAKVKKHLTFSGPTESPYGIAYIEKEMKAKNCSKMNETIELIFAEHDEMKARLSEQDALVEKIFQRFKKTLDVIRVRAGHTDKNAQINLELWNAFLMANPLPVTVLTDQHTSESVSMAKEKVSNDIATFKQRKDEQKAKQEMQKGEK

[3] = target: Aux1_(LS20) with a C-terminal His(6) tag (Bacillus subtilis (plasmid pLS20cat)); experiment: AUC; sedimentation equilibrium of the purified protein alone at 12 uM, best fit to a single species model; conditions as in Ramachandran et al., 2017
[4] = target: Aux1_(LS20) with a C-terminal His(6) tag (Bacillus subtilis (plasmid pLS20cat)); experiment: AUC + other: dynamic light scattering; sedimentation velocity of the purified protein alone at 12 uM; diffusion coefficient from DLS combined with the S-value in the Svedberg equation; conditions as in Ramachandran et al., 2017
[5] = target: Aux2_(LS20) with a C-terminal His(6) tag (Bacillus subtilis (plasmid pLS20cat)); experiment: AUC; sedimentation equilibrium of the purified protein alone at 12 uM, best fit to a single species model; conditions as in Ramachandran et al., 2017
[6] = target: Aux2_(LS20) with a C-terminal His(6) tag (Bacillus subtilis (plasmid pLS20cat)); experiment: AUC + other: dynamic light scattering; sedimentation velocity of the purified protein alone at 12 uM; diffusion coefficient from DLS combined with the S-value in the Svedberg equation; conditions as in Ramachandran et al., 2017

## AAATCACCTAAATAATGGTTGAACATAAATGTTTTTTTTATGTGCATTCAGCAATAAATCTGGTACCACGAAAAAACAAACCGCACTGCGGTTTCACCATGCAAATGGTGCCAGTTTCCCCTTATGCTCTTTCCTTTTCCACCCCCTCCTTCCTTCGGAATCGGGGGCCGGCTTTTTGCTGCCGCAAAAAGCCTTGGAAA (double strand) [F27]
[1]
  binding: binds
[2]
  binding: binds more weakly

## ACGAGCAAAGAAATGCTAGGTGAACTTGAAAAACGGAATGAATTATTGAAGAAAAGAAAGAGCAATCTCGTCATCGAAGACTAAATTTCTGTATGGAAAACAGTTATTTTTCGTGTGCATAAAATAAAGATTTATGTGCATTTAGTTCTAAATCACCTAAATAATGGTTGAACATAAATGTTTTTTTTATGTGCATTCAGC (double strand) [F21]
[2]
  binding: binds

## ATGGTGAAACCGCAGTGCGGTTTGTTTTTTCGTGGTACCAGATTTATTGCTGAATGCACATAAAAAAAACATTTATGTTCAACCATTATTTAGGTGATTTAGAACTAAATGCACATAAATCTTTATTTTATGCACACGAAAAATAACTGTTTTCCATACAGAAATTTAGTCTTCGATGACGAGATTGCTCTTTCTTTTCT (double strand) [F23]
[1]
  binding: binds
[2]
  binding: binds

## Aux1_(LS20) with a C-terminal His(6) tag (natural protein)
[3]
  stoichiometry N: 4
[4]
  stoichiometry N: 4

## Aux2_(LS20) with a C-terminal His(6) tag (natural protein)
[5]
  stoichiometry N: 6
[6]
  stoichiometry N: 6

## CAGTTATTTTTCGTGTGCATAAAATAAAGATTTATGTGCATTTAGTTCTAAATCACCTAAATAATGGTTGAACATAAATGTTTTTTTTATGTGCATTCAGCAATAAATCTGGTACCACGAAAAAACAAACCGCACTGCGGTTTCACCATGCAAATGGTGCCAGTTTCCCCTTATGCTCTTTCCTTTTCCACCCCCTCCTTC (double strand) [F25]
[1]
  binding: binds
[2]
  binding: binds

## CATCGATTTCTGCACATTACTTTGCAACGATCTGTTCAAATAAGTGTTTCTTTTTCCAAGGCTTTTTGCGGCAGCAAAAAGCCGGCCCCCGATTCCGAAGGAAGGAGGGGGTGGAAAAGGAAAGAGCATAAGGGGAAACTGGCACCATTTGCATGGTGAAACCGCAGTGCGGTTTGTTTTTTCGTGGTACCAGATTTATTG (double strand) [F29]
[1]
  binding: binds
[2]
  binding: no binding

## CGAAGACTAAATTTCTGTATGGAAAACAGTTATTTTTCGTGTGCATAAAATAAAGATTTATGTGCATTTAGTTCTAAATCACCTAAATAATGGTTGAACATAAATGTTTTTTTTATGTGCATTCAGCAATAAATCTGGTACCACGAAAAAACAAACCGCACTGCGGTTTCACCATGCAAATGGTGCCAGTTTCCCCTTAT (double strand) [F24]
[1]
  binding: binds
[2]
  binding: binds

## CGGCATTTGTTAACGCTCCTTTTCATCGATTTCTGCACATTACTTTGCAACGATCTGTTCAAATAAGTGTTTCTTTTTCCAAGGCTTTTTGCGGCAGCAAAAAGCCGGCCCCCGATTCCGAAGGAAGGAGGGGGTGGAAAAGGAAAGAGCATAAGGGGAAACTGGCACCATTTGCATGGTGAAACCGCAGTGCGGTTTGT (double strand) [F30]
[2]
  binding: no binding

## GCAAATGGTGCCAGTTTCCCCTTATGCTCTTTCCTTTTCCACCCCCTCCTTCCTTCGGAATCGGGGGCCGGCTTTTTGCTGCCGCAAAAAGCCTTGGAAAAAGAAACACTTATTTGAACAGATCGTTGCAAAGTAATGTGCAGAAATCGATGAAAAGGAGCGTTAACAAATGCCGGATCTCAACATCAAAGGTCTTTCAA (double strand) [F31]
[2]
  binding: no binding

## GCTCTTTCCTTTTCCACCCCCTCCTTCCTTCGGAATCGGGGGCCGGCTTTTTGCTGCCGCAAAAAGCCTTGGAAAAAGAAACACTTATTTGAACAGATCGTTGCAAAGTAATGTGCAGAAATCGATGAAAAGGAGCGTTAACAAATGCCGGATCTCAACATCAAAGGTCTTTCAAAAGATACAATGAATAGGCTTGCGGA (double strand) [F32]
[2]
  binding: no binding

## TAAAGATTTATGTGCATTTAGTTCTAAATCACCTAAATAATGGTTGAACATAAATGTTTTTTTTATGTGCATTCAGCAATAAATCTGGTACCACGAAAAAACAAACCGCACTGCGGTTTCACCATGCAAATGGTGCCAGTTTCCCCTTATGCTCTTTCCTTTTCCACCCCCTCCTTCCTTCGGAATCGGGGGCCGGCTTT (double strand) [F26]
[1]
  binding: binds
[2]
  binding: binds more weakly

## TAAATGTTTTTTTTATGTGCATTCAGCAATAAATCTGGTACCACGAAAAAACAAACCGCACTGCGGTTTCACCATGCAAATGGTGCCAGTTTCCCCTTATGCTCTTTCCTTTTCCACCCCCTCCTTCCTTCGGAATCGGGGGCCGGCTTTTTGCTGCCGCAAAAAGCCTTGGAAAAAGAAACACTTATTTGAACAGATCG (double strand) [F28]
[1]
  binding: binds
[2]
  binding: binds more weakly

## TGAGAAAGTCCTGCCTTCCTCGCTTTATCCGCAAGCCTATTCATTGTATCTTTTGAAAGACCTTTGATGTTGAGATCCGGCATTTGTTAACGCTCCTTTTCATCGATTTCTGCACATTACTTTGCAACGATCTGTTCAAATAAGTGTTTCTTTTTCCAAGGCTTTTTGCGGCAGCAAAAAGCCGGCCCCCGATTCCGAAGG (double strand) [F33]
[2]
  binding: no binding

## TTTTTCGTGGTACCAGATTTATTGCTGAATGCACATAAAAAAAACATTTATGTTCAACCATTATTTAGGTGATTTAGAACTAAATGCACATAAATCTTTATTTTATGCACACGAAAAATAACTGTTTTCCATACAGAAATTTAGTCTTCGATGACGAGATTGCTCTTTCTTTTCTTCAATAATTCATTCCGTTTTTCAAG (double strand) [F22]
[1]
  binding: binds
[2]
  binding: binds

Reference: PMC5675868
